Results published in patent US6867003.
Values belong to the substance of their own block, whether it stands above or below them.

Biological target: insulin receptor partially purified from CHO-IR cells (Chinese Hamster Ovary cells expressing high levels of insulin receptors of human origin) (human) (UniProt P06213)
Experiment: cell-based or functional assay

Sequence of GST-rGrb14 (O88900 whole entry): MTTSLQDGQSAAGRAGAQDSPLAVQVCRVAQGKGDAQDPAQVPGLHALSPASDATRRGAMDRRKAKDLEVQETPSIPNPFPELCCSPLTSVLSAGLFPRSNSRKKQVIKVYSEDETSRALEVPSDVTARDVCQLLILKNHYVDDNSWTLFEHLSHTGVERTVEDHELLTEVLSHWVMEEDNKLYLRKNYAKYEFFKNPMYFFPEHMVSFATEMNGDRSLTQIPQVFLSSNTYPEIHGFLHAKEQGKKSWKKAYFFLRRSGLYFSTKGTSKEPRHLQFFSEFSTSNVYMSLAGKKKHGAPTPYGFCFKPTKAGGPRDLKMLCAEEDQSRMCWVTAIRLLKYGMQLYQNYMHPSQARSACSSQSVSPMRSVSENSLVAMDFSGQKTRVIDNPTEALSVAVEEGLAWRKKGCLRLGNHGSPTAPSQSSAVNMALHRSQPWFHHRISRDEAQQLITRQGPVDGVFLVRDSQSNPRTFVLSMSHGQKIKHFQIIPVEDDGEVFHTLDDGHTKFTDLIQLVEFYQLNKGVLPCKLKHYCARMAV
Sequence of GST-PIR+SH2 of rGrb14 (O88900 353-538): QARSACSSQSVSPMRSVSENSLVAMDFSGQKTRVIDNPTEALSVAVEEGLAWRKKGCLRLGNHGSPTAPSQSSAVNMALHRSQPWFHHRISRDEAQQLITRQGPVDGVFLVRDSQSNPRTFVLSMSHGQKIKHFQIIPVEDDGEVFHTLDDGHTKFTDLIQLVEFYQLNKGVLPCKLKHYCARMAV

maximum inhibition of the tyrosine kinase activity of the insulin receptors: 40%
Substance: GST-rGrb7 (from UniProt Q9QZC5 1-535)

amount giving total inhibition of the tyrosine kinase activity of the insulin receptors: 0.3 µg
Substance: GST-PIR of rGrb14 (from UniProt O88900 353-436)

amount giving the maximum inhibitory effect on the tyrosine kinase activity of the insulin receptors: 0.03 µg
Substance: GST-PIR+SH2 of rGrb14 (from UniProt O88900 353-538)

amount giving 50% inhibition of the tyrosine kinase activity of the receptors (32P incorporation into poly Glu-Tyr): 0.04 µg
Substance: GST-rGrb14 (from UniProt O88900 1-538)
